Laboratory results published in US7338932.

Tests used:
[1] = biological target: T1, MUC2 acceptor peptide (PTTTPISTTTMVTPTPTPTC)
T1 chain: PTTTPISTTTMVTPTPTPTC

[2] = biological target: T2, EA2 acceptor peptide (PTTDSTTPAPTTK)
T2 chain: PTTDSTTPAPTTK

[3] = biological target: T3, MUC7 acceptor peptide (Ac-CPPTPSATTPAPPSSSAPPETTAA)
T3 chain: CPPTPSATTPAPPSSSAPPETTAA

B1: human recombinant GalNAc-T3 (enzyme source of Example 6) (protein)
chain: MERNMKNKNKMLDLMLEAVNNIKDAMPKMQIGAPVRQNIDAGERPCLQGYYTAAELKPVLDRPPQDSNAPGASGKAFKTTNLSVEEQKEKERGEAKHCFNAFASDRISLHRDLGPDTRPPECIEQKFKRCPPLPTTSVIIVFHNEAWSTLLRTVHSVLYSSPAILLKEIILVDDASVDEYLHDKLDEYVKQFSIVKIVRQRERKGLITARLLGATVATAETLTFLDAHCECFYGWLEPLLARIAENYTAVVSPDIASIDLNTFEFNKPSPYGSNHNRGNFDWSLSFGWESLPDHEKQRRKDETYPIKTPTFAGGLFSISKEYFEYIGSYDEEMEIWGGENIEMSFRVWQCGGQLEIMPCSVVGHVFRSKSPHSFPKGTQVIARNQVRLAEVWMDEYKEIFYRRNTDAAKIVKQKAFGDLSKRFEIKHRLQCKNFTWYLNNIYPEVYVPDLNPVISGYIKSVGQPLCLDVGENNQGGKPLIMYTCHGLGGNQYFEYSAQHEIRHNIQKELCLHAAQGLVQLKACTYKGHKTVVTGEQIWEIQKDQLLYNPFLKMCLSANGEHPSLVSCNPSDPLQKWILSQND
[1]
  galactosyltransferase activity with UDP-Gal: Muc2, 0 nmol/min/ml
[2]
  galactosyltransferase activity with UDP-Gal: EA2, 6.8 nmol/min/ml
[3]
  galactosyltransferase activity with UDP-Gal: Muc7, 0.1 nmol/min/ml
